Experimental data: the supplement of paper PMC9233669
This sample holds only a part of the variants without activity.

Legend:
[1] = test system: biotinyl-Trp-oxazolone; experiment: self-aminoacylation, catalytic enhancement (BWO) (fold over background); higher = more active; k-Seq, kA / k0A0; sequences stand for … in GGGAAUGGAUCCACAUCUACGAAUUC…UUCACUGCAGACUUGACGAAGCUG
Summary of the method: (§1)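 The uncatalyzed rate is the low-activity peak of a bimodal Gaussian fit, and catalytic enhancement is median kA divided by it. The kA values came from pseudo-first-order fits, with 1000 bootstraps, of per-sequence fraction reacted measured by streptavidin capture, triplicate qPCR and Illumina sequencing. Mutagenized RNA pools with a 21-nt variable region (0.43 μM) were reacted with each biotinyl-aminoacyl-oxazolone at 2–1250 μM in 50 μL HEPES/NaCl/KCl/MgCl2/CaCl2 buffer with 5% acetonitrile, pH 6.9–7.0, for 90 minutes at room temperature.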

[2] = test system: biotinyl-Leu-oxazolone; experiment: self-aminoacylation, catalytic enhancement (BLO) (fold over background); higher = more active; k-Seq, kA / k0A0; sequences stand for … in GGGAAUGGAUCCACAUCUACGAAUUC…UUCACUGCAGACUUGACGAAGCUG
Summary of the method: as §1

[3] = test system: biotinyl-Ile-oxazolone; experiment: self-aminoacylation, catalytic enhancement (BIO) (fold over background); higher = more active; k-Seq, kA / k0A0; sequences stand for … in GGGAAUGGAUCCACAUCUACGAAUUC…UUCACUGCAGACUUGACGAAGCUG
Summary of the method: as §1

[4] = test system: biotinyl-Met-oxazolone; experiment: self-aminoacylation, catalytic enhancement (BMO) (fold over background); higher = more active; k-Seq, kA / k0A0; sequences stand for … in GGGAAUGGAUCCACAUCUACGAAUUC…UUCACUGCAGACUUGACGAAGCUG
Summary of the method: as §1

[5] = test system: biotinyl-Phe-oxazolone; experiment: self-aminoacylation, catalytic enhancement (BFO) (fold over background); higher = more active; k-Seq, kA / k0A0; sequences stand for … in GGGAAUGGAUCCACAUCUACGAAUUC…UUCACUGCAGACUUGACGAAGCUG
Summary of the method: as §1

[6] = test system: biotinyl-Val-oxazolone; experiment: self-aminoacylation, catalytic enhancement (BVO) (fold over background); higher = more active; k-Seq, kA / k0A0; sequences stand for … in GGGAAUGGAUCCACAUCUACGAAUUC…UUCACUGCAGACUUGACGAAGCUG
Summary of the method: as §1

Sequence | self-aminoacylation [1] | self-aminoacylation [2] | self-aminoacylation [3] | self-aminoacylation [4] | self-aminoacylation [5] | self-aminoacylation [6]
AUUCCCCUAGAUCAUCGGGUG [Fam2.2 aminoacylation ribozyme variant] | 9.85 | 11.9 | 7.3 | 9.42 | 75.1 | 6.64
AUUCCCCUAGGGCAUCGGGUG [Fam2.2 aminoacylation ribozyme variant] | 10.4 | 12.4 | 7.87 | 10.3 | 42.8 | 6.4
AUUCCCCUAGGUCACCGGGUG [Fam2.2 aminoacylation ribozyme variant] | 21.7 | 26.2 | 13.9 | 20.3 | 163 | 13.4
AUUCCCCUAGGUCAUAGGGUG [Fam2.2 aminoacylation ribozyme variant] | 4.78 | 6.57 | 3.38 | 4.99 | 17.1 | 3.08
AUUCCCCUAGGUCAUCGGGGG [Fam2.2 aminoacylation ribozyme variant] | 13.6 | 13.3 | 8.54 | 8.39 | 51.6 | 10.2
AUUCCCCUAGGUCAUCGGGUC [Fam2.2 aminoacylation ribozyme variant] | 4 | 5.52 | 4.5 | 4.08 | 22.8 | 5.52
AUUCCCCUAGGUCAUGGGGUG [Fam2.2 aminoacylation ribozyme variant] | 15.8 | 24.7 | 11.3 | 19 | 167 | 11.1
AUUCCCCUAGGUCCUCGGGUG [Fam2.2 aminoacylation ribozyme variant] | 24.6 | 37.9 | 19.6 | 26.9 | 241 | 17.1
AUUCCCCUAGGUCUUCGGGUG [Fam2.2 aminoacylation ribozyme variant] | 21.8 | 26.7 | 13.7 | 19.3 | 127 | 13.9
AUUCCCCUCGUCAUCGAGUGA [Fam2.1 aminoacylation ribozyme variant] | 5.17 | 4.4 | 3.49 | 4.49 | 15.8 | 3.46
AUUCCCCUGGCCAUCGAGUGA [Fam2.1 aminoacylation ribozyme variant] | 6.48 | 8.45 | 3.34 | 6.17 | 46.6 | 4.87
AUUCCCCUGGGCAUCGAGUGA [Fam2.1 aminoacylation ribozyme variant] | 11.6 | 11.1 | 5.22 | 10.8 | 65.9 | 5.1
AUUCCCCUGGUCACCGAGUGA [Fam2.1 aminoacylation ribozyme variant] | 12.6 | 11.1 | 5.93 | 9.9 | 73.1 | 5.07
AUUCCCCUGGUCAUAGAGUGA [Fam2.1 aminoacylation ribozyme variant] | 13.1 | 10.1 | 5.4 | 10 | 70.9 | 5.89
AUUCCCCUGGUCAUCGAGCGA [Fam2.1 aminoacylation ribozyme variant] | 1.53 | 2.75 | 2.14 | 2.63 | 8.04 | 2.17
AUUCCCCUGGUCAUCGAGUUA [Fam2.1 aminoacylation ribozyme variant] | 1.08 | 1.19 | 1.33 | 1.09 | 1.25 | 1.36
AUUCCCCUGGUCAUCUAGUGA [Fam2.1 aminoacylation ribozyme variant] | 13 | 11.4 | 5.92 | 11.9 | 85.5 | 6.23
AUUCCCCUGGUCAUGGAGUGA [Fam2.1 aminoacylation ribozyme variant] | 4.27 | 3.99 | 2.92 | 3.85 | 16.3 | 3.12
AUUCCCCUUGGUCAUCGGGUG [Fam2.2 aminoacylation ribozyme variant] | 18.9 | 27.4 | 13.4 | 20.4 | 165 | 13.7
AUUCCCGUGGUCAUCGAGUGA [Fam2.1 aminoacylation ribozyme variant] | 11.3 | 9.05 | 5.17 | 8.45 | 63.3 | 5.81
AUUCCUCUAGGUCAUCGGGUG [Fam2.2 aminoacylation ribozyme variant] | 16.1 | 23.7 | 10.4 | 16.6 | 154 | 10.5
AUUCCUCUGGUCAUCGAGUGA [Fam2.1 aminoacylation ribozyme variant] | 7.73 | 6.46 | 3.75 | 6.73 | 31.6 | 4.02
AUUCGCCUAGAUCAUCGGGUG [Fam2.2 aminoacylation ribozyme variant] | 3.12 | 4.04 | 2.08 | 2.69 | 19.1 | 2.27
AUUCGCCUAGGUCAUCGGAUG [Fam2.2 aminoacylation ribozyme variant] | 0.704 | 0.903 | 0.941 | 0.94 | 0.493 | 1.07
AUUCGCCUAGGUCAUCGGGAG [Fam2.2 aminoacylation ribozyme variant] | 0.98 | 1.87 | 1.29 | 1.51 | 2.55 | 1.54
